B1: KSHV viral interferon regulatory factor 1, wild type, Flag-tagged (vIRF1-WT-Flag) [modified: lysine propionylation at Lys406 and Lys442 and lysine acetylation, as found on vIRF1 immunoprecipitated from these cells; lysine … (parent)
chain 1: MDPGQRPNPFGAPGAIPKKPCLSQGSPGTSGSGAPCDEPSRSESPGEGPSGTGGSAAAGDITRQAVVAAITEWSRTRQLRISTGASEGKASIKDWIVCQVNSGKFPGVEWEDEERTRFRIPVTPLADPCFEWRRDGELGVVYIRERGNMPVDASFKGTRGRRRMLAALRRTRGLQEIGKGISQDGHHFLVFRVRKPEEEQCVECGVVAGAVHDFNNMARLLQEGFFSPGQCLPGEIVTPVPSCTTAEGQEAVIDWGRLFIRMYYNGEQVHELLTTSQSGCRISSALRRDPAVHYCAVGSPGQVWLPNVPNLACEIAKRELCDTLDACAKGILLTSSCNGIFCVCYHNGPVHFIGNTVPPDSGPLLLPQGKPTRIFNPNTFLVGLANSPLPAPSHVTCPLVKLWLGKPVAVGKLEPHAPSPRDFAARCSNFSDACVVLEIMPKPLWDAMQ
chain 2: MGTPKPRILPWLVSQLDLGQLEGVAWVNKSRTRFRIPWKHGLRQDAQQEDFGIFQAWAEATGAYVPGRDKPDLPTWKRNFRSALNRKEGLRLAEDRSKDPHDPHKIYEFVNSGVGDFSQPDTSPDTNGGGSTSDTQEDILDELLGNMVLAPLPDPGPPSLAVAPEPCPQPLRSPSLDNPTPFPNLGPSENPLKRLLVPGEEWEFEVTAFYRGRQVFQQTISCPEGLRLVGSEVGDRTLPGWPVTLPDPGMSLTDRGVMSYVRHVLSCLGGGLALWRAGQWLWAQRLGHCHTYWAVSEELLPNSGHGPDGEVPKDKEGGVFDLGPFIVDLITFTEGSGRSPRYALWFCVGESWPQDQPWTKRLVMVKVVPTCLRALVEMARVGGASSLENTVDLHISNSHPLSLTSDQYKAYLQDLVEGMDFQGPGES

Variants of: B1
Experiment: co-immunoprecipitation (anti-Myc IP, anti-Flag Western blot)
Conditions: with Myc-tagged IRF3 (IRF3-Myc); HEK293T cells; parent: 1

First: chain 1 K442R
Second: chain 1 K317R K329R K370R K401R K406R K412R K442R
The ratio to parent of the first is higher: 0.2 for the first, 0.1 for the second.

First: chain 1 K89R K93R K104R K156R K179R K195R
Second: chain 1 K406R
The ratio to parent of the first is higher: 0.7 for the first, 0.5 for the second.

Source: publication PMC10112802
